Results as given in PMC3335016, “Analysis of the Nse3/MAGE-Binding Domain of the Nse4/EID Family Proteins” (PLoS ONE, 2012).

B1: EID2 WT peptide (aa 197-217) [modified: biotin, linked via the SGSG spacer; biotin, linked via the SGSG spacer] [human] / His-S-MAGEC2(129-339) [human] (parent complex)
chain 1: QRNPHRVDLDILTFTIALTAS
chain 2: GLPDSESSFTYTLDEKVAELVEFLLLKYEAEEPVTEAEMLMIVIKYKDYFPVILKRAREFMELLFGLALIEVGPDHFCVFANTVGLTDEGSDDEGMPENSLLIIILSVIFIKGNCASEEVIWEVLNAVGVYAGREHFVYGEPRELLTKVWVQGHYLEYREVPHSSPPYYEFLWGPRAHSESIKKKVLEFLAKLNNTVPSSFPSWYKDALKD

Variants of: B1
Assay: PEPSCAN-ELISA; parent: 100; read off a plot

Row | Variant | percent of parent [%]
1 | chain 1 QRNAHRVDLDILTFTIALTAS [chain 1 P4A] | ~45
2 | chain 1 QRNPHRVDLDILTFAIALTAS [chain 1 T15A] | ~67
3 | chain 1 QRNPHRVALDILTFTIALTAS [chain 1 D8A] | ~86

The remaining lines, values ahead:

Row | percent of parent [%] | Variant
4 | ~58 | chain 1 QRAPHRVDLDILTFTIALTAS [chain 1 N3A]
5 | ~38 | chain 1 QRNPARVDLDILTFTIALTAS [chain 1 H5A]
6 | ~46 | chain 1 QRNPHRVDLDILAFTIALTAS [chain 1 T13A]
7 | ~34 | chain 1 QRNPHRADLDILTFTIALTAS [chain 1 V7A]
